Laboratory results taken from the Human Domainome abundance scans (Beltran et al. 2025).

B1: Protein piccolo, residues 1058 to 1114; numbered along this chain, Q9Y6V0 (parent)
chain: TCPLCKTELNIGSKDPPNFNTCTECKNQVCNLCGFNPTPHLTEIQEWLCLNCQTQRA

Variants of: B1
Test: abundance fitness (aPCA) (normalised: wild type 0, dead -1); higher = more abundant; growth selection in yeast, the domain comes from the species named
Conditions: Homo sapiens

Abundance fitness: each site, then its substitutions
F19: M 0.181, W -0.083, H -0.022, S -0.277, Y 0.032, P -0.385, N 0.04, I 0.178, K -0.737
N36: E 0.099, S -0.12, W -0.08, I -0.129, M 0.033, G 0.038
P17: A -0.176, M -0.491, F -0.245, Y -0.53, N -0.189, D -0.122, T -0.464, Q -0.114, R -0.106, K 0.127, E 0.137
N18: A -0.199, M -0.842, Y -0.094, G -0.098, S -0.128, F -0.199
W47: C -0.134, E 0.031, Y -0.493, F -0.065, S -0.03
G34: V -0.037, K -0.794, R -0.102, P -0.63, Y -0.15, W -0.242
I11: E 0.172, K -0.104, C -0.133, R -0.112, F -0.063, P 0.11
T1: M -0.031, P -0.239, K -0.424, G -0.205, R -0.21
V29: P -0.545, T -0.118
C30: G -0.584, T -0.597, W -1, E -0.532, R -0.541, P -0.807
T38: I -0.143
D15: F 0.003, P -0.273, L 0.015, Y 0.124, T -0.013, E -0.248, K -0.014
E24: G -0.012, P -0.517, F -0.269, C -0.706, M -0.06, N -0.184, K -0.017, W -0.198, H -0.058
T42: Q 0.062, M -0.253, L -0.091, I -0.105, Y -0.301, G 0.122, A 0.055, S -0.011
C52: N -0.876, R -0.701, W -1.14, Q -0.841, F -1.06, H -0.273, S -0.709
F35: P 0.285, V 0.108, H 0.275, R 0.21, D 0.218, S 0.236, N 0.066
N20: L -0.024, R 0.078, D 0.186, Q 0.094
L50: S 0.141, D 0.208, V 0.102, F -0.25, G 0.084, N 0.019
L41: N 0.128, H -0.247, A 0.117, M -0.189, Y 0.081, F 0.149
P39: D -0.117, L -0.001, C -0.115, V 0.092, S 0.069
N10: L -0.204, R -0.274, T 0.062, Q -0.005
C49: W -0.884, Q -0.927, P -0.418
T23: H -0.18, P -0.126, Q -0.36, D 0.041, R -0.016, N -0.342
C5: Q -0.689, N -0.693, F -1.11, W -0.96
K14: H 0.056, T 0.013, Q -0.092, D 0.003, L -0.644, S -0.126, G 0.021, W -0.525
K26: D 0.071, E 0.045, Y 0.148, F -0.025
I44: C 0.026, P 0.126, W -0.312, S 0.045, M -0.214
N31: T -0.173, R 0.012, H 0.118, K 0.12
E43: W -0.09, Y -0.443, L -0.398, M -0.191, K -0.003, F -0.289, A -0.048
Q45: M -0.015, I -0.047, K 0.268, R -0.003, W 0.233, H -0.357
L32: H 0.073, R 0.175, W 0.015, V 0.104, N -0.176, A 0.124
L4: S 0.006, T -0.051, V -0.308, R -0.054, C -0.043, K -0.569, W -0.576, Q 0.028, H 0.054, F -0.376, I -0.048
C33: F -0.92, M -0.812, D -0.336, S -0.646, I -0.933, T -0.952, Y -1.26, W -1.01
C2: T -0.705, S -0.687, R -0.991, E -0.557, A -1.3
T7: F -0.342, Q 0.019, R -0.056, I -0.31, A -0.063, Y -0.34, N -0.007, E 0.094
S13: M 0.012, E -0.257, P -0.062, H -0.079, N -0.146, T -0.048, L -0.23, K 0.209
N51: I -0.566, P -0.284, H -0.146
C25: Q -0.644, A -0.784, G -0.682, S -0.671
G12: W -0.326, N -0.611, L -0.039, C 0.077, Y -0.137, P 0.027, E 0.092
L9: C -0.201, S -0.042, E -0.11, K 0.026, M 0.145, V -0.056, G -0.047
N27: R 0.106, S 0.12, A 0.151
Q53: A -0.249, D 0.099, K 0.115, Y -0.23
E46: A -0.176, C -0.292, V -0.033
L48: W -0.061, P -0.318, H -0.177, R -0.079, K -0.245, F 0.09, Y -0.112
E8: Y -0.679, W -0.517, G -0.052, F -0.431, N -0.488, H -0.479, R -0.206, Q -0.178
K6: I -0.087, D -0.298, P 0.104, E -0.069, Y -0.18, C -0.329, A -0.097, V -0.215, Q -0.02
T54: H -0.076, G 0.046, Y -0.369, W -0.441, V -0.198, E 0.231, L -0.531
P16: M -0.09, W -0.541, L -0.095, I -0.173, A -0.37, V -0.483, C -0.045, Y -0.056, N -0.229, R -0.179, H 0.009
Q28: N -0.125, G 0.038, T -0.015, H -0.206, D -0.398, E -0.164, R 0.004
C22: Q -0.791, T -0.736, G -0.69, Y -0.899, M -0.74
T21: A 0.004, K 0.198, D -0.078, F -0.109, C 0.032, V 0.091, E 0.036
H40: F -0.105, M 0.004, A 0.076, W -0.206, Q -0.065, P 0.085, K -0.06
P3: S -0.078, I -0.073, F -0.216, G -0.137, E -0.32, K -0.248, L -0.282, D 0.095, W -0.984
P37: T 0.079, R 0.032, M -0.098, S 0.016, L -0.023, C 0.05, K -0.054
